From patent US20210107996A1 (PROMAB BIOTECHNOLOGIES, published 2021)

Molecular target: T1, recombinant PLAP extracellular domain protein (Sino Biological) (human, UniProt P05187 23-506)
T1 construct: Bought protein; also called purified recombinant PLAP protein; PLAP antigen
Assay: BLI (Blitz ForteBio); antibody captured on anti-mouse-capture biosensors, PLAP antigen in solution
Protocol: The binding of PLAP antibody with recombinant PLAP extracellular domain protein from Sino Biological was performed using Blitz ForteBio system as described. In brief, anti-mouse-capture (AMC) biosensors were soaked in kinetics buffer (PBS, 0.1% Tween, 0.05% BSA) for 10 min and then with mouse anti-PLAP antibody at 0.1 mg/mL in same buffer for 30 min. After washing, biosensors were used to bind the PLAP antigen at different concentrations. The Kd was detected with Blitz system software.

T1 sequence (P05187 23-506): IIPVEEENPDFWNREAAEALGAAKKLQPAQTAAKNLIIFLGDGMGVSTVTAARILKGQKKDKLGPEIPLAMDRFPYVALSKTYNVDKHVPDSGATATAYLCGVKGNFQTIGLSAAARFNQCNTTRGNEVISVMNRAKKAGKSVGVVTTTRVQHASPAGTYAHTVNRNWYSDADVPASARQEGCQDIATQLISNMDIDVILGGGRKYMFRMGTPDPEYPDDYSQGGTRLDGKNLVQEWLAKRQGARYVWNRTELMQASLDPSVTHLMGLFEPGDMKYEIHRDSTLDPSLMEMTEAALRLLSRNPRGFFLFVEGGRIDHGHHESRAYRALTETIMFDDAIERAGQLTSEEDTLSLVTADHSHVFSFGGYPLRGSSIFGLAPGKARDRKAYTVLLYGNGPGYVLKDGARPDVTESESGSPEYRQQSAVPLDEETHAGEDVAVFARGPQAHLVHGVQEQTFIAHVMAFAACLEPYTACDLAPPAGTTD

B1: mouse monoclonal PLAP antibody (clone H17E2) (antibody, V domains shown)
VH: QVQLKESGPGLVAPSQSLSITCTVSGFSLTSYGVSWVRQPPRKGLEWLGVIWEDGSTNYHSALISRLSINKDNSKSQVFLKLNSLQTDDTATYYCAKPHYGSSYVGAMEYWGQGTSVTVSS
VL: DIQMTQSPASLTASVGETVTITCRASENIYSYVAWYQQKQGKSPQFLVYNAKSLAEGVPSRFSGSGSGTQFSLKINSLQPEDFGNYYCQHHYVSPWTFGGGTKLEIR
notes: Bought whole mouse monoclonal antibody (Thermo Fisher / Ximbio); also called PLAP antibody H17E2; mouse anti-PLAP antibody
B1 showed a Kd of 3.2 nM.
